Laboratory results published in patent US6037450.

Molecular target: human protein C (human) (UniProt P04070)
Test: protein C affinity column (protein C held on HPC4 mAb-AffiGel-10, 3 mM CaCl2, 0.6 mM MgCl2); EPCR antigen in the fractions measured by ELISA

UniProt P04070, sequence (P04070 43-461): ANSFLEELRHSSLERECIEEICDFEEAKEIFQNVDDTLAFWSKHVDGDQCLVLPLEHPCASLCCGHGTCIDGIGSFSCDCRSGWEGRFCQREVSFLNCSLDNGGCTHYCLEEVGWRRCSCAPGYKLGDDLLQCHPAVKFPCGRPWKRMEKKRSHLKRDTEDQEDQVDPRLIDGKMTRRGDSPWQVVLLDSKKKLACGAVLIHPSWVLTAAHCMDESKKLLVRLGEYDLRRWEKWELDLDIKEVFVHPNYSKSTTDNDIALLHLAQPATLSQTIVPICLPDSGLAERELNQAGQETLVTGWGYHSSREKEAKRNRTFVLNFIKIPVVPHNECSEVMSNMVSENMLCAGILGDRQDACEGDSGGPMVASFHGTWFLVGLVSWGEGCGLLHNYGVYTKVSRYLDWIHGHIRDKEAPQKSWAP

B1: plasma EPCR (soluble endothelial cell protein C/activated protein C receptor purified from human citrated plasma) (receptor)
chain: SQDASDGLQRLHMLQISYFRDPYHVWYQGNASLGGHLTHVLEGPDTNTTIIQLQPLQEPESWARTQSGLQSYLLQFHGLVRLVHQERTLAFPLTIRCFLGCELPPEGSRAHVFFEVAVNGSSFVSFRPERALWQADTQVTSGVVTFTLQQLNAYNRTRYELREFLEDTCVQYVQKHISAENTKG
Work on B1 yielded a percent of applied antigen bound of over 98%.
